From PMC4970725

Experiments:
[1] = target: IL-18 receptor on NK-92MI cells (human (endogenous in NK-92MI)) (UniProt Q13478)
IL-18 (Homo sapiens) = IL-18 (Homo sapiens) (UniProt Q14116); settings: cited from earlier work
IL-18 (Homo sapiens), sequence (Q14116 37-193): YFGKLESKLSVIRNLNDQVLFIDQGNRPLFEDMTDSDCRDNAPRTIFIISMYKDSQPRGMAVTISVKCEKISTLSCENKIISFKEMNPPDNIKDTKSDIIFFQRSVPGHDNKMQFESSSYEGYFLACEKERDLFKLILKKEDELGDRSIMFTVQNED

IL-18 receptor on NK-92MI cells (human (endogenous in NK-92MI)), sequence (Q13478 19-541, chain 1 of 2): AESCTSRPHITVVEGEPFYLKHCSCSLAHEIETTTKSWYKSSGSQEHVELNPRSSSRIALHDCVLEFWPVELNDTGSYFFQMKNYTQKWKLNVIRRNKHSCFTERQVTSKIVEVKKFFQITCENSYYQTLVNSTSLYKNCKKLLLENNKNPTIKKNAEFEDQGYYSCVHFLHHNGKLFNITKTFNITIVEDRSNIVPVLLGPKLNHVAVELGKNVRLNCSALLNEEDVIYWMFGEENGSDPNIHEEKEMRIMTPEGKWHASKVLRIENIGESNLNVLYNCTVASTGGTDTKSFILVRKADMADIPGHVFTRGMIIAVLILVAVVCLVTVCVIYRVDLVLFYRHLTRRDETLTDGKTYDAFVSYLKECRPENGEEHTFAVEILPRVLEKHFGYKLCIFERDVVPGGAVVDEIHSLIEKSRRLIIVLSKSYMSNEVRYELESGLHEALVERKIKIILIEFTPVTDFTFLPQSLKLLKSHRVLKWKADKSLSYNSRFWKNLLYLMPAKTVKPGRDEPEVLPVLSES
IL-18 receptor on NK-92MI cells (human (endogenous in NK-92MI)), sequence (O95256 20-599, chain 2 of 2, further chain): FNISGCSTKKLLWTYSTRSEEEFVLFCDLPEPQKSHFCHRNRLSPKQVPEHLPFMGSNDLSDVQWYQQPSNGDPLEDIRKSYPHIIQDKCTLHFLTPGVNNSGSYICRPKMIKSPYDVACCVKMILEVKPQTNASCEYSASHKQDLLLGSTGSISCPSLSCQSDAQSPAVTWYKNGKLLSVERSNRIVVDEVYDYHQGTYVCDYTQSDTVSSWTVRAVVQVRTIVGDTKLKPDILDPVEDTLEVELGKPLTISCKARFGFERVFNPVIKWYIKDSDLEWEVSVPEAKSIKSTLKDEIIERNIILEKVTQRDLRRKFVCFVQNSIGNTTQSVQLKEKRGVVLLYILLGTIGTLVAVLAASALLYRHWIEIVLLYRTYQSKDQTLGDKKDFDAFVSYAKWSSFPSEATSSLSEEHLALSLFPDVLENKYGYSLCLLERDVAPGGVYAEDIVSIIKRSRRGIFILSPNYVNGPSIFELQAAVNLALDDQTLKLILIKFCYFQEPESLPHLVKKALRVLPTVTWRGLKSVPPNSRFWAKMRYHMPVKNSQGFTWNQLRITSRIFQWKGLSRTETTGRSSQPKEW
IL-18BP, sequence (O95998 31-194): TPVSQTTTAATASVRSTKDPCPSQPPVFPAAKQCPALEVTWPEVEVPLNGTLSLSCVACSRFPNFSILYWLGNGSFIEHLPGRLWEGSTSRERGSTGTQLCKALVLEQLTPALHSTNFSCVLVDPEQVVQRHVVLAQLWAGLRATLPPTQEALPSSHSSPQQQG

Substance | IFN-γ in the supernatant (ELISA) of NK-92MI cells stimulated with 0.5 ng/ml IL-12 and 12.5-200 ng mL^-1 IL-18; activity against wild-type IL-18 at 200 ng mL^-1 (times higher than wild-type IL-18) [1] | Kd (IL-18 (Homo sapiens)) [nM]
recombinant mature human interleukin-18 E6K (ligand) | 9.3 | –
IL-18BP (from UniProt O95998) | – | 0.4
recombinant mature human interleukin-18 T63A (ligand) | 3.9 | –
